Laboratory results as given in US20090175860A1 (Novartis, published 2009).
Residue numbers refer to the chain shown, from its start.

B1: 04690 (parental anti-cMet Fab antibody) (Fab, V domains shown)
VH: QVQLQQSGPGLVKPSQTLSLTCAISGDSVSSNSAAWGWIRQSPGRGLEWLGRIYYRSKWVNDYAVSVKSRITINPDTSKNQFSLQLNSVTPEDTAVYYCARQGAVYPGPYGFDVWGQGTLVTVSS
VL: DIELTQPPSVSVAPGQTARISCSGDKLGSYFVYWYQQKPGQAPVLVIYDDDNRPSGIPERFSGSNSGNTATLTISGTQAEDEADYYCQSFGISNFYVFGGGTKLTVLG
notes: carries two C-terminal tags (FLAG and 6xHis)
B2: 04541 (parental anti-cMet Fab antibody) (Fab, V domains shown)
VH: QVQLQESGPGLVKPGETLSLTCTVSGGSISSSSYYWNWIRQAPGKGLEWIGEIYFGWTYYNPSLKGRVTISVDTSKNQFSLKLSSVTAEDTAVYYCARGYEFHGYTTFDYWGQGTLVTVSS
VL: DIELTQPPSVSVAPGQTARISCSGDNIGSYYVYWYQQKPGQAPVLVIYDDNDRPSGIPERFSGSNSGNTATLTISGTQAEDEADYYCQSYDFPSIVFGGGTKLTVLG
notes: as for B1
B3: 04537 (parental anti-cMet Fab antibody) (Fab, V domains shown)
VH: QVQLVQSGAEVKKPGESLKISCKGSGYSFSNYWIGWVRQMPGKGLEWMGFIFPDTSYTRYSPSFQGQVTISADKSISTAYLQWSSLKASDTAMYYCARVKLITDYWGQGTLVTVSS
VL: DIELTQPPSVSVAPGQTARISCSGDSLRSYFVSWYQQKPGQAPVLVIYDDDDRPSGIPERFSGSNSGNTATLTISGTQAEDEADYYCASWDTLSDVEVFGGGTKLTVLG
notes: as for B1
B4: 05097 in IgG format (antibody, V domains shown)
VH: QVQLVQSGAEVKKPGSSVKVSCKASGGTFSSYAISWVRQAPGQGLEWMGGIDPFGTANYAQKFQGRVTITADESTSTAYMELSSLRSEDTAVYYCARVYQDVWGQGTLVTVSS
VL: DIVMTQSPDSLAVSLGERATINCRSSQSILYGINNNFLGWYQQKPGQPPKLLIYWASTRESGVPDRFSGSGSGTDFTLTISSLQAEDVAVYYCQQYAFGWTFGQGTKVEIKR
B5: 05185 in IgG format (antibody, V domains shown)
VH: B4 VH with F54I, G55M, T56G, A57T, N58E
VL: DIVMTQSPDSLAVSLGERATINCRSSQSILYGINNNFLGWYQQKPGQPPKLLIYWASTRESGVPDRFSGSGSGTDFTLTISSLQAEDVAVYYCQQYAYEPNTFGQGTKVEIKR
B6: 05098 in IgG format (antibody, V domains shown)
VH: B4 VH
VL: B5 VL with Q94L, A97S, Y98D, N101W
B7: 05091 in IgG format (antibody, V domains shown)
VH: QVQLVQSGAEVKKPGASVKVSCKASGYTFTGYYMNWVRQAPGQGLEWMGIINPWTGNTNYAQKFQGRVTMTRDTSISTAYMELSSLRSEDTAVYYCARDPGFFYYTPSDLWGQGTLVTVSS
VL: DIELTQPPSVSVAPGQTARISCSGDSIGNKYVHWYQQKPGQAPVLVIYADSDRPSGIPERFSGSNSGNTATLTISGTQAEDEADYYCQSYAHYHDIWVFGGGTKLTVLG
B8: 04687 in IgG format (antibody, V domains shown)
VH: B4 VH
VL: B5 VL with A97Y, Y98N, E99H, N101H
B9: 04536 in IgG format (antibody, V domains shown)
VH: B7 VH
VL: DIELTQPPSVSVAPGQTARISCSGDSIGNKYVHWYQQKPGQAPVLVIYADSDRPSGIPERFSGSNSGNTATLTISGTQAEDEADYYCQAYDSSMLRVFGGGTKLTVLG
B10: 04541 in IgG format (antibody, V domains shown)
VH: B2 VH
VL: B2 VL
B11: 04537 in IgG format (antibody, V domains shown)
VH: B3 VH
VL: B3 VL

Each binder was assayed against T1, rhesus c-Met on 4MBr-5 cells (rhesus) (assay: flow cytometry, Fab titration on rhesus 4MBr-5 cells).
T1 construct: whole, on cells
Method: (§1) In order to further characterize the anti-c-Met antibodies, the affinity to full length human and cynomolgus c-Met is determined. GTL16, CHO cells overexpressing cynomolgus c-Met or rhesus 4 MBr-5 cells are washed, trypsinised, and suspended in PBS containing 3% FCS (3% FCS/PBS) at 4-C. 2-5×10⁵ cells/sample are resuspended in 140 μl of 3% FCS//PBS containing 5 μg/ml of purified anti-cMet Fabs or serial dilutions thereof. As a positive control 5 μg/ml of DO24 (mouse IgG2a), anti-human c-Met is used. The cells are incubated for 30-60 minutes at 4° C. before being pelleted by centrifugation for 2 min at 2000 rpm (716 g) at 4° C. and washed in 200 μl of in chilled 3% FCS/PBS. The cells are again pelleted by centrifugation and the PBS gently removed. Cells are resuspended in 100 μl of goat anti-human IgG (H+L) PE conjugated (Jackson Cat No. 109-116-088) diluted 1:200 in 3% FCS/0.02% NaN₃/PBS; For the positive control goat anti-mouse IgG (H+L)-PE conjugated (Jackson Cat No. 115-116-146) diluted 1:200 in 3% FCS/PBS is used. Samples are incubated in the dark for 30-60 min at 4° C. Following centrifugation and washing in 200 μl of 3% FCS/0.02%/NaN₃/PBS the cells are resuspended in 100 μl of 3% FCS/PBS and assayed using FACS-array or FACS-Calibur.

Binder | Kd [nM]
B1 | 0.1
B2 | 0.1
B3 | 0.1

What follows are binders tested against T2, full length human c-Met on cells (human, UniProt P08581 25-1390) (assay: cell-based or functional assay).
T2 sequence (P08581 25-1390): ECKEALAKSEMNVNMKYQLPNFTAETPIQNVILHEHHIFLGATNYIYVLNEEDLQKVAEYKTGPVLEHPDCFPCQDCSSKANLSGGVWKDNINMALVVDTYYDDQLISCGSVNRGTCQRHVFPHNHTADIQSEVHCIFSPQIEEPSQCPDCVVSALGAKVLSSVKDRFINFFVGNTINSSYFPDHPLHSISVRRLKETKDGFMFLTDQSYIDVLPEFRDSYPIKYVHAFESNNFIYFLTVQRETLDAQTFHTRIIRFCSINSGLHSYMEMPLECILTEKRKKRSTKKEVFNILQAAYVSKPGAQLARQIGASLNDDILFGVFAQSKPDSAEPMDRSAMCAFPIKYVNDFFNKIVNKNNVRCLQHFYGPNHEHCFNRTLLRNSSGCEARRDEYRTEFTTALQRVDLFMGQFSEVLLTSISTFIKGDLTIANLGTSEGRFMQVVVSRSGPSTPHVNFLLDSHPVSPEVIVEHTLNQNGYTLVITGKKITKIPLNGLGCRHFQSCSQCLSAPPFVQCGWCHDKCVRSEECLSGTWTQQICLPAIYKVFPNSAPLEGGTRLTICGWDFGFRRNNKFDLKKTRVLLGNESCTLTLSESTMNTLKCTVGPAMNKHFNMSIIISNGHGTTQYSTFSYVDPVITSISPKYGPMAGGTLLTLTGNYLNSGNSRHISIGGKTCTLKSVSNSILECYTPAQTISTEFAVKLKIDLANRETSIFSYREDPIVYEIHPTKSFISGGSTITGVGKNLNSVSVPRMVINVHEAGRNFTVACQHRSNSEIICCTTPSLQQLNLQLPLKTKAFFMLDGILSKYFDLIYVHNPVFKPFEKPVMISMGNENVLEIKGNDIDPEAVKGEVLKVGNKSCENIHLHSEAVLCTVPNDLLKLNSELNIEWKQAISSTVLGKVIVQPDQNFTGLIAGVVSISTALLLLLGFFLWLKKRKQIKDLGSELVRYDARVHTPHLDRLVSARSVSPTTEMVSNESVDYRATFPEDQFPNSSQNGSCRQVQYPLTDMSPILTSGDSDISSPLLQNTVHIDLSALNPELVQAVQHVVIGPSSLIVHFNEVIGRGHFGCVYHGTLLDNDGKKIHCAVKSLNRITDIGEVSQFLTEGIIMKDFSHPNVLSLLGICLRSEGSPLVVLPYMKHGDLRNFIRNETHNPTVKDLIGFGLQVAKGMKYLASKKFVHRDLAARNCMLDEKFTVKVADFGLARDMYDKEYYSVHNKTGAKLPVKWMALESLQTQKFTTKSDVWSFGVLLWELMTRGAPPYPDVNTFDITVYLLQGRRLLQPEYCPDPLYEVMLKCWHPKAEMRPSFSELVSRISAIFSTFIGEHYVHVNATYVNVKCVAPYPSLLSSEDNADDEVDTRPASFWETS

Binder | EC50 [nM] Inhibition of HGF driven migration NCI-H441 in 1% serum [nM]
B4 | 0.76
B5 | 1.2
B6 | 0.73
B7 | 0.61

What follows are binders tested against T3, recombinant human c-Met (human, UniProt P08581 25-932, limits assumed) (assay: SPR (BIAcore), Fab on immobilised human c-Met).
T3 construct: Soluble recombinant protein: immobilised on the CM5 chip in Biacore, in solution in the equilibrium titration; The precursor is cleaved into disulfide-linked alpha and beta subunits; also called Hepatocyte Growth Factor Receptor
Method: (§2) Using these clones, kinetic SPR analysis is performed on a CM5 chip (Biacore, Sweden) which had been coated with a density of ˜400 RU of either recombinant human c-Met, in 10 mM Na-acetate pH 4.5 using standard EDC-NHS amine coupling chemistry. […] PBS (136 mM NaCl, 2.7 mM KCl, 10 mM Na2HPO4 , 1.76 mM KH2PO4 pH 7.4) is used as the running buffer. The Fab preparations are applied in concentration series of 16-500 nM at a flow rate of 20 μl/min. Association phase is set to 60 s and dissociation phase to 120 s.

T3 sequence (P08581 25-932 limits assumed): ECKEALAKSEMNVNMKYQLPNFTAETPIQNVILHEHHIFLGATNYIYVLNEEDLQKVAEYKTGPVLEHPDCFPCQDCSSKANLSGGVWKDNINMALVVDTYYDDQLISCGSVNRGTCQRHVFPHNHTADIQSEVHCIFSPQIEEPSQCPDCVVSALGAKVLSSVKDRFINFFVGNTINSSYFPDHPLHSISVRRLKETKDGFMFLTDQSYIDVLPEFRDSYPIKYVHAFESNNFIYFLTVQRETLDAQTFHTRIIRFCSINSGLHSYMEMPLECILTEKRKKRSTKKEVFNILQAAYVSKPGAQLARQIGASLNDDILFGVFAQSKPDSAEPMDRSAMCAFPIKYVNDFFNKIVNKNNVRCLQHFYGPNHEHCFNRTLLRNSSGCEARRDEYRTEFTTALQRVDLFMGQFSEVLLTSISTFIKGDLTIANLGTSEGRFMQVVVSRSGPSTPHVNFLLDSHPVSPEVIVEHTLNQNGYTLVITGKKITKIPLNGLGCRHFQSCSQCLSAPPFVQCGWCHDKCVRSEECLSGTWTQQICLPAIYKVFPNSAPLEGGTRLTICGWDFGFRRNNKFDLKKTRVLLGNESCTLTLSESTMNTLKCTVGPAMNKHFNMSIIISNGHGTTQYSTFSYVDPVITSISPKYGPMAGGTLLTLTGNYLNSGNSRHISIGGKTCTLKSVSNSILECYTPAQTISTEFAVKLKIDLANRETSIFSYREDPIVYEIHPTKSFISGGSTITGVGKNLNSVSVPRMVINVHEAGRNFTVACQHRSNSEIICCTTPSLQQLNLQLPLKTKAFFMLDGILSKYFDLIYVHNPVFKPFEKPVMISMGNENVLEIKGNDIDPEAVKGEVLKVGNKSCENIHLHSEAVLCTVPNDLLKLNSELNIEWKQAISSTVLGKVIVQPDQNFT

Binder | Kd [nM]
B2 | 2.6
B3 | 1.7

What follows are binders tested against T2, full length human c-Met on cells (assay: flow cytometry, Fab titration on GTL-16 cells).
Method: as §1

Binder | Kd [nM]
B1 | 1.1
B2 | 0.5
B3 | 2.6

What follows are binders tested against T4, cynomolgus c-Met on CHO cells (cynomolgus, UniProt A0A2K5UM36 25-1381, The natural precursor is cleaved into disulfide-linked alpha and beta subunits. It is given here as one mature chain, following the entry's CHAIN feature.) (assay: flow cytometry, Fab on CHO-cyno c-Met cells).
T4 construct: also called cyno c-Met; CHO-cMet cyno
Method: as §1

T4 sequence (A0A2K5UM36 entry or part of it limits assumed): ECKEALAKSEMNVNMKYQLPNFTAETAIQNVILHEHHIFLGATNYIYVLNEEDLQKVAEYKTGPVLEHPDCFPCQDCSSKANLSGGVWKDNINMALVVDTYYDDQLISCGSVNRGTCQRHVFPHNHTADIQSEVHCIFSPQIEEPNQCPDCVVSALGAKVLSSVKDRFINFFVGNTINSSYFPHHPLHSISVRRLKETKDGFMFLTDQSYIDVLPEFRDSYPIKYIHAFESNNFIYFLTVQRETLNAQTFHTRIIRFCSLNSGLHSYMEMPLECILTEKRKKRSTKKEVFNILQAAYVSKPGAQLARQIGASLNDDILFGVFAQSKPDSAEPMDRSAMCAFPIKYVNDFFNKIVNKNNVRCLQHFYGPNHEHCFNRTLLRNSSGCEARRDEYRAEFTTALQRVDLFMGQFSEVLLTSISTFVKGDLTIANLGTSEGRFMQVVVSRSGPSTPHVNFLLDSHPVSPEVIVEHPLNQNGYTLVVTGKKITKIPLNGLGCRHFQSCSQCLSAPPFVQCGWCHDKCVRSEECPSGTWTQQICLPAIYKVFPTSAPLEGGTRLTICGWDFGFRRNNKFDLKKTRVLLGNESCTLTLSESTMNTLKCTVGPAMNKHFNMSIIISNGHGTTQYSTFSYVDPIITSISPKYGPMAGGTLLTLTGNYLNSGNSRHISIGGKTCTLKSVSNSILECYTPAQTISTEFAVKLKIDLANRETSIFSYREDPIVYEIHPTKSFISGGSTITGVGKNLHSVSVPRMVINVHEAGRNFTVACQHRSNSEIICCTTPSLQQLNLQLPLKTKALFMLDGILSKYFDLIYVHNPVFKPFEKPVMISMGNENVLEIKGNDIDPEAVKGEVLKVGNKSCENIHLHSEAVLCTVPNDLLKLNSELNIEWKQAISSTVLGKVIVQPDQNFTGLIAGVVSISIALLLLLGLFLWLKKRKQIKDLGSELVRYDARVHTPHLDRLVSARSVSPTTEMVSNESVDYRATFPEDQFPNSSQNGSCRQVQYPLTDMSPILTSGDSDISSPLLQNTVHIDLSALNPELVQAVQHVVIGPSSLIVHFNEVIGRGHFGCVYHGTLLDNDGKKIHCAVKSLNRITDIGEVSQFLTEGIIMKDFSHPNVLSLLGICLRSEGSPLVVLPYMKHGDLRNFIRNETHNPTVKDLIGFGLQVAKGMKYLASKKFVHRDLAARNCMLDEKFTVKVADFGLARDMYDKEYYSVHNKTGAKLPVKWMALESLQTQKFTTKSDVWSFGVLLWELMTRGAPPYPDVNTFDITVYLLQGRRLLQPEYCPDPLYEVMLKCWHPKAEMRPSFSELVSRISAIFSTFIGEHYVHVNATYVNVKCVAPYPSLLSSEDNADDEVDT

Binder | Kd [nM]
B2 | 0.6
B3 | 12.7

Target: T2, full length human c-Met on cells
Assay: cell-based or functional assay
Remark: another data set of the same source

Binder | EC50 [nM] Inhibition of HGF stimulated c-Met autophosphorylation in A549 [nM]
B4 | 0.166
B5 | 0.219
B6 | 0.419
B7 | 0.193

These binders were tested against T1, rhesus c-Met on 4MBr-5 cells (assay: cell-based or functional assay).

Binder | EC50 [nM] 4Mbr-5 Proliferation IgG [nM]
B8 | 6
B9 | 4
B10 | 200
B11 | 150

Target: T2, full length human c-Met on cells
Assay: cell-based or functional assay
Remark: another data set of the same source

Binder | EC50 [nM] NCI-H441 Migration IgG [nM]
B8 | 1.68
B9 | 0.61
B10 | 0.27
B11 | 0.14

Target: T1, rhesus c-Met on 4MBr-5 cells
Assay: cell-based or functional assay
Remark: another data set of the same source

Binder | EC50 [nM] Inhibition of HGF driven proliferation 4MBr-5 [nM]
B8 | 6
B9 | 4
B10 | 200
B11 | 150

Target: T2, full length human c-Met on cells
Assay: cell-based or functional assay
Remark: another data set of the same source

Binder | EC50 [nM] Inhibition of HGF driven migration NCI-H441 [nM]
B8 | 1.68
B9 | 0.61
B10 | 0.27
B11 | 0.14

These binders were tested against T3, recombinant human c-Met (assay: SPR (BIAcore), c-Met amine-coupled on CM5 chip, Fab 16-500 nM as analyte).
Method: as §2

Binder | Kd [nM]
B1 | 66
B2 | 2.6
B3 | 1.7

These binders were tested against T2, full length human c-Met on cells (assay: flow cytometry, Fab on GTL-16 cells).
Method: as §1

Binder | Kd [nM]
B2 | 1.7
B3 | 1.5

Target: T1, rhesus c-Met on 4MBr-5 cells
Assay: cell-based or functional assay
Remark: another data set of the same source

Binder | EC50 [nM] Inhibition of HGF driven proliferation 4MBr-5 in 10% serum [nM]
B4 | 1.6
B5 | 0.13
B6 | 0.5
B7 | 1.3
